No end group written: not given here.
T1: GLP-1R Y205A (Homo sapiens)
T1 chain: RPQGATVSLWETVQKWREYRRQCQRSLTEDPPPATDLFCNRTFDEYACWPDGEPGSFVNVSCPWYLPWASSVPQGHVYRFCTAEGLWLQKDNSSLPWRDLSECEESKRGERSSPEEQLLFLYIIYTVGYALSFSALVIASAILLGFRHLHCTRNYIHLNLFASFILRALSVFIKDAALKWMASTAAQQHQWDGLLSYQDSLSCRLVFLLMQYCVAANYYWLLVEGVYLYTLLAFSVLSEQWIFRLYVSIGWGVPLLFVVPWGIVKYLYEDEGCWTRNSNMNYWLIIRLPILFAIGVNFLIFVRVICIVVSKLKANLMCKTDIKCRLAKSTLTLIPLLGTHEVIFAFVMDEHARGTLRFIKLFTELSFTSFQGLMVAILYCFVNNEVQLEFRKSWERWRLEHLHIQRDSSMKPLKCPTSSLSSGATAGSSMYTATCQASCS

T2: GLP-1R S206A (Homo sapiens)
T2 chain: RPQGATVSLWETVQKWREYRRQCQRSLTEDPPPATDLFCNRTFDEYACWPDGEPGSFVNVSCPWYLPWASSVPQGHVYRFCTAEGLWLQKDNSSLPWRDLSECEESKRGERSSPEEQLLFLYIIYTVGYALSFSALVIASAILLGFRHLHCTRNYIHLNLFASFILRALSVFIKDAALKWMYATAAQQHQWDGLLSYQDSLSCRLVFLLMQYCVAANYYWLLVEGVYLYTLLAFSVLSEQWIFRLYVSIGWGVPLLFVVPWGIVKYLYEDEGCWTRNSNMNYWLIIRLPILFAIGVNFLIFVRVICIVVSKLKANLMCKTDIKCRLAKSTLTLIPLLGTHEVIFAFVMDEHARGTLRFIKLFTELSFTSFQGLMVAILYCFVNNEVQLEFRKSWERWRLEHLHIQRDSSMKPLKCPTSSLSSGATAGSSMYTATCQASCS

T3: GLP-1R L201A (Homo sapiens)
T3 chain: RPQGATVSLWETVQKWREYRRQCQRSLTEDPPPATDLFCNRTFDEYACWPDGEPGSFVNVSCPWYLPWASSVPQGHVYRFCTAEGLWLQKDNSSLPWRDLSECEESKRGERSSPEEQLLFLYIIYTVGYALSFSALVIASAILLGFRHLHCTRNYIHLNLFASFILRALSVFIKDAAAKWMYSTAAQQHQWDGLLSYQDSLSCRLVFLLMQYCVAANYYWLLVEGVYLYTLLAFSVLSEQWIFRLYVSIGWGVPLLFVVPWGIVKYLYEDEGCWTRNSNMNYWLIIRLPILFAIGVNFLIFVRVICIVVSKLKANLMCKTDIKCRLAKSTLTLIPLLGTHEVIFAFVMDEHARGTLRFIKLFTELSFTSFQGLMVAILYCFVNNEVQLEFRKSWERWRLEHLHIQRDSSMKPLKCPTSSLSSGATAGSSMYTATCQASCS

T4: GLP-1R K202A (Homo sapiens)
T4 chain: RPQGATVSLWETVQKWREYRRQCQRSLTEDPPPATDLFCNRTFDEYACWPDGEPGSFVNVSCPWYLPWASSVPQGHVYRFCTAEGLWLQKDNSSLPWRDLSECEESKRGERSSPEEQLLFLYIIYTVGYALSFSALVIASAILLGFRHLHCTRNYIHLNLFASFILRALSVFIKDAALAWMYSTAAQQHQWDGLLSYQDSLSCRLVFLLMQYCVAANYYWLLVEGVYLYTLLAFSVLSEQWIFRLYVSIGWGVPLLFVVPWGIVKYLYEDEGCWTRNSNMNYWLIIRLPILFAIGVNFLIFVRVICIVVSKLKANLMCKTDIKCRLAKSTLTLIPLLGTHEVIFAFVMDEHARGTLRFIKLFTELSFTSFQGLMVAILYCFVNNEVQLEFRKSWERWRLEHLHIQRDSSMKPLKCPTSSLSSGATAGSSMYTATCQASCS

T5: GLP-1R D198A (Homo sapiens)
T5 chain: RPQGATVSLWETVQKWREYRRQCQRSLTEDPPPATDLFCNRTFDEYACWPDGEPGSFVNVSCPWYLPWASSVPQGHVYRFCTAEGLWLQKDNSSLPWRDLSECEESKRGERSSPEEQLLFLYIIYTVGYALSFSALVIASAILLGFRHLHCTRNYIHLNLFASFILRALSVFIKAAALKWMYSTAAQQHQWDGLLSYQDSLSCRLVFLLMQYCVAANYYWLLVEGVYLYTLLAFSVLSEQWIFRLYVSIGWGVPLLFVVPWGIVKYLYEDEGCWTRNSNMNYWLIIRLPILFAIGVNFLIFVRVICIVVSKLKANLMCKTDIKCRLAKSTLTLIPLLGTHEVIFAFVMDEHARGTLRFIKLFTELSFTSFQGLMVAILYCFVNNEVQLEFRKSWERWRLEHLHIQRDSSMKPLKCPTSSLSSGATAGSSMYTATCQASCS

T6: GLP-1R H212A (Homo sapiens)
T6 chain: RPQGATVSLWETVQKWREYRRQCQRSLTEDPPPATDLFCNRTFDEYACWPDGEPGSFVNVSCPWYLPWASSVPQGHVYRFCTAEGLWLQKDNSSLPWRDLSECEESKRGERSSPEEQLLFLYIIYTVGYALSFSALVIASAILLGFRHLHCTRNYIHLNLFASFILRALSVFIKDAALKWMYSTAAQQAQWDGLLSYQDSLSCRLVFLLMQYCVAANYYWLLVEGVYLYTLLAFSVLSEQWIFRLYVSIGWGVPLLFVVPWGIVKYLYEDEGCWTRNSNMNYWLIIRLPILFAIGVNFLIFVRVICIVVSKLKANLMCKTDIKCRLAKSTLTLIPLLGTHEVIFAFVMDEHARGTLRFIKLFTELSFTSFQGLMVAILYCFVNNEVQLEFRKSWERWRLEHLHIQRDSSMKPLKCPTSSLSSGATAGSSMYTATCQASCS


Experiments:
GLP-1R Y205A = target: T1, GLP-1R Y205A
GLP-1R S206A = target: T2, GLP-1R S206A
GLP-1R L201A = target: T3, GLP-1R L201A
GLP-1R K202A = target: T4, GLP-1R K202A
GLP-1R D198A = target: T5, GLP-1R D198A
GLP-1R H212A = target: T6, GLP-1R H212A

| IC50 (GLP-1R Y205A) [nM] | IC50 (GLP-1R S206A) [nM] | IC50 (GLP-1R L201A) [nM] | IC50 (GLP-1R K202A) [nM] | IC50 (GLP-1R D198A) [nM] | IC50 (GLP-1R H212A) [nM] | Binder |
| --- | --- | --- | --- | --- | --- | --- |
| 36.3 | 16.6 | 107 | 191 | 708 | 12.9 | HSQGTFTSDYSKYLDSRRAQDFVQWLMNTKRNRNNIA [oxyntomodulin] |
| 3.09 | 4.9 | 38.9 | 6.03 | 155 | 1.23 | HAEGTFTSDVSSYLEGQAAKEFIAWLVKGR (not fully specified (C-terminus)) [glucagon-like peptide-1] |
